Measurements as given in the supplement of paper PMC10567573.

B1: TRIM43 (parent)
chain: FCDMDKSLLCLLCSNSQEHGAHKH
B2: C10orf62 (parent)
chain: TSECPSDKDKSPESHKAKNESWIK

Variants of: B1
Experiment: protein stability index of a GFP-peptide fusion (GPS, HEK-293T) (PSI 1-6); higher = more stable
Conditions: c terminus: a fixed tail appended
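Further: lentivirally expressed fusions sorted by FACS into six bins by GFP to DsRed ratio, PSI derived from sequencing read proportions per bin multiplied by bin number.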

Protein stability index of substitutions, site by site:
D3: Y 2.48, A 2.15, Q 2.07, N 1.75, E 2.09, P 1.67, L 1.93, H 2.35, M 2.54, W 1.8, T 1.82, C 2.26, F 2, I 1.94, S 1.99, V 2.76, R 1.99, G 1.99, K 2.35
S16: C 1.87, E 1.8, F 2.13, A 1.8, D 1.97, G 2.22
F1: Q 3.72, H 3.64, C 3.54, P 3.6, R 3.57, D 3.56, T 3.21, A 3.33, G 3.49, S 3.72, Y 1.88, L 3.21, I 2.81, K 3.56, E 4.17, V 3.25, M 3.41, N 3.57, W 2.45
S7: V 1.79, H 2.22, G 1.92, L 1.93, R 1.65, Y 2.1, F 2.72, I 1.84, K 1.92, P 2.62, Q 2.54, M 2.23, C 2.26, A 1.77, T 2.04, E 2.12, W 1.79, D 2.48, N 2.22
L9: I 1.91, W 1.55, Q 2.68, H 1.93, E 2.99, N 2.52, T 2.29, G 1.64, R 2.08, C 2.36, V 2.16, S 1.88, P 2.84, M 1.92, K 2.61, F 1.89, A 1.99, D 2.78, Y 1.46
S14: F 1.45, I 1.52, Q 2.09, R 2.2, V 1.71, Y 1.82, N 2.01, H 1.87, C 1.88, G 2.26, P 1.98, M 1.85, W 2.06, E 2.02, A 1.87, L 2.08, K 2.12, D 1.72, T 2.02
D5: Y 2.18, S 1.79, M 2.97, Q 1.98, I 3.01, H 3.33, E 1.92, P 2.29, K 2.22, G 2.33, V 2.74, R 1.74, T 2.34, F 3.03, N 1.8, W 3.29, A 2.67, C 2.02, L 2.69
L12: W 3.13, Q 2.65, T 1.95, N 2.14, I 1.78, P 1.91, V 1.93, M 2.06, E 2.55, D 2.32, G 1.57, Y 1.75, H 2.78, F 1.47, C 2.56, A 1.92, R 1.96, S 2.65, K 2.12
M4: E 2.58, A 2.07, Q 1.88, L 1.98, F 2.04, R 2.16, Y 2.07, N 1.85, T 1.64, K 1.7, H 3.6, P 2, W 2.13, D 2.86, G 1.96, S 2.19, V 2.11, I 1.96, C 3.14
K6: S 2.17, T 1.94, D 2.96, Q 2.38, G 2.18, V 1.74, W 2.04, C 1.95, H 2.09, N 2.32, I 2.04, P 2.12, E 2.29, Y 2.17, M 2.21, L 1.97, F 2.24, R 1.56, A 2.06
C2: Q 2.43, V 1.86, L 2.21, N 2.58, M 2.31, F 2.23, Y 2.9, H 2.22, P 2.76, W 2.38, E 3.4, S 2.51, G 1.77, I 1.8, K 3.4, D 3.65, T 1.84, R 2.84, A 1.54
N15: H 1.55, F 2.01, K 2.26, D 2.26, L 2.4, C 1.77, W 1.89, T 1.77, E 1.92, Y 2.09, A 1.6, R 2.1, M 1.66, P 1.34, V 1.89, I 2.49, Q 1.87, G 1.94, S 2.07
C13: A 1.15, I 2.04, T 1.83, E 2.13, H 1.88, V 2.3, F 1.89, L 2.07, M 2.19, K 2.15, R 2.13, Q 2.53, G 1.9, Y 1.68, D 1.99, N 1.87, W 2.72, S 1.61, P 2.13
L8: V 2.72, I 1.96, M 2.31, A 2.43, S 3.1, R 2.71, C 2.64, T 2.32, E 3.8, F 2.5, Y 2.03, K 2.86, G 2.3, Q 2.82, D 3.41, P 2.51, N 2.81, H 2.54, W 2.3
L11: C 1.44, M 1.86, F 2.04, H 2.04, A 2.21, T 2.51, G 1.93, Y 2.26, W 2.79, D 2.75, V 1.63, Q 2.36, P 1.83, N 2.07, I 2.25, R 2.19, K 2.2, S 1.8, E 2.93
C10: R 1.7, I 2.06, W 2.57, M 2.15, P 2.3, G 1.64, H 2.03, T 1.72, D 2.18, A 2.23, F 2.58, K 2.04, E 2.23, L 2.14, S 1.59, Q 1.86, N 1.83, V 1.86, Y 2.65

Variants of: B2
Experiment: as above
Conditions: c terminus: a fixed tail appended

Protein stability index, by site and new letter:
E13: A 2.77, Y 2.98
T1: V 2.3, L 4.35, M 3.23
K10: A 3.64, I 3.25, M 3.63, F 3.72
E3: M 2.88, A 2.94
K16: I 3.92
I23: A 3.68, K 4.59, Q 2.89
K18: I 3.01, V 3.56, N 3.6
H15: V 3.88, E 3.84
S2: H 3.47
N19: F 2.87
P12: H 3.44, T 3.54, A 2.87
W22: D 5.78
E20: W 4.72, G 4.3
K8: P 3.38, Y 3.26, C 3.52
S6: R 2.75, M 2.94
S21: A 4.61, T 3.97, L 3.65
P5: E 3.84
K24: N 3.17
D9: H 3.18, Q 3.27
C4: Q 3.52, Y 3.15
A17: T 3.14
